Biological target: MASP-2-T1 (aa 1-414) (human) (UniProt O00187)
Experiment: ELISA, antibody titrated on truncated human MASP-2 T1 (aa 1-414)

EC50 (read off the curve): 0.01 µg/mL
Substance: benchmark antibody narsoplimab

Reference: US20250154284A1
